The assay deals with human FGFR1c/βKlotho receptor (human), P11362. Nature of the assay: cell-based or functional assay.

Where a chain is given by its changes, count along the chain named.

human FGFR1c/βKlotho receptor (human), P11362, sequence (P11362 22-822, chain 1 of 2): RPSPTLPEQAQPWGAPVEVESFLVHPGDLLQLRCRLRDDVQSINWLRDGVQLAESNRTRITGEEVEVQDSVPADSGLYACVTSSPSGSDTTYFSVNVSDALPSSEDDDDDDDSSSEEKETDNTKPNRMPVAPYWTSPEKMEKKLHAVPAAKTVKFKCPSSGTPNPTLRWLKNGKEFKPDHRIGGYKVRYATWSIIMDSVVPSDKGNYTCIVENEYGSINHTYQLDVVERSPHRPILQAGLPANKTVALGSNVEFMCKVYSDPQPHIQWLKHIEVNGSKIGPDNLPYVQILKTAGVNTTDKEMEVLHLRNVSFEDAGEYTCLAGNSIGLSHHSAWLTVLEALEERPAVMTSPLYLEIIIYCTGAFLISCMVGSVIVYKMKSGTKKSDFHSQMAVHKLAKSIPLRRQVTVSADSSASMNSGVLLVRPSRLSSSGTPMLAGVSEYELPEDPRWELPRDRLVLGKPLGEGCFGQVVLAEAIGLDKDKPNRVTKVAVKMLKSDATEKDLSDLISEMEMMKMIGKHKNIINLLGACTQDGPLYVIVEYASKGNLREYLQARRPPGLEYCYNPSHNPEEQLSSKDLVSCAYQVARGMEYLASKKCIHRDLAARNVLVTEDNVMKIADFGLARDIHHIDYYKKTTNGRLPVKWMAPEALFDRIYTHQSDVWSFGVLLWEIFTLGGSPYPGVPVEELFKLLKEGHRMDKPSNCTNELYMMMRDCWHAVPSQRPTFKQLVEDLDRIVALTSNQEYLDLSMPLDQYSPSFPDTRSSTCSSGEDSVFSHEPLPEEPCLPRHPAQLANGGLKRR
human FGFR1c/βKlotho receptor (human), P11362, sequence (chain, as listed by the source, chain 2 of 2): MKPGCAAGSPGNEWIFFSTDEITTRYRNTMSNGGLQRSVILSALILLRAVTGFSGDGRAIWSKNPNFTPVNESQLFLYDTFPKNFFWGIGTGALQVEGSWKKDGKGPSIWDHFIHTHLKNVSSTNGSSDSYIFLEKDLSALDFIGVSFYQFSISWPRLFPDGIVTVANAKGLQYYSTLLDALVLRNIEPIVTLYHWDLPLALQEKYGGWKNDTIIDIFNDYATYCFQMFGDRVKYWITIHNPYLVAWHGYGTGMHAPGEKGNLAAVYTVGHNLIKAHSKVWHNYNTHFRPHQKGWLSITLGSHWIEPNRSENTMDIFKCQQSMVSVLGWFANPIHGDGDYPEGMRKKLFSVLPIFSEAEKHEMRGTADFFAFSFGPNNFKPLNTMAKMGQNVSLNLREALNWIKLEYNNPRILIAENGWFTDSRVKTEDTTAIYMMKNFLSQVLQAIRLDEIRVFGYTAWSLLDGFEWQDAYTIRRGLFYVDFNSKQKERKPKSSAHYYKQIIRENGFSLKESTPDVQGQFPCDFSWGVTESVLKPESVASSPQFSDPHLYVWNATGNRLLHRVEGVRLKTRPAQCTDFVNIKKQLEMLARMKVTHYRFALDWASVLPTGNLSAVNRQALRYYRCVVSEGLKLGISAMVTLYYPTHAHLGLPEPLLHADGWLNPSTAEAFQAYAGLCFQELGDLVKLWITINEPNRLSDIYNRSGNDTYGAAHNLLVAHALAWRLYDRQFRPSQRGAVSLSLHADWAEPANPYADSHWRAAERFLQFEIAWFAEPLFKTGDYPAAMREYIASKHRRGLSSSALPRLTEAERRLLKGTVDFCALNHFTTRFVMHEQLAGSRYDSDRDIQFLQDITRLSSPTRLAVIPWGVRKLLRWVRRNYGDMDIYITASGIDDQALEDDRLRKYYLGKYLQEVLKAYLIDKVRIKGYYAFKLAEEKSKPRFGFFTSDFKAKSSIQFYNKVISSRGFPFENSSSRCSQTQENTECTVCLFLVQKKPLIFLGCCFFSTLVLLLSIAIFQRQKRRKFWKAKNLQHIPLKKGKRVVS

B1: CB-8 (antibody, V domains shown)
VH: EVQLVQSGAEVKKPGASVKVSCKASGYTFTSYGISWVRQAPGQGLEWMGWISAYNGNTNYAQKLQGRVTMTTDTSTSTAYMELRSLRSDDTAVYYCATLYGSGSLYYWGQGTLVTVSS
VL: DIVMTQSPSSLSAPVGDRVTITCQASQDIRNYINWFQQKPGKAPKLLIYAASSLQSGVPSRFSGSGSGTDFTLTISSLQPEDFATYYCQQSYSTPQWTFGQGTKVEIK
As to B1, the EC50, luciferase reporter-based assay (receptor activation) amounted to 1.31 nM and the EC50 for antibody-induced cell activation, as determined by the reporter-based assay is 3.74 nM.

B2: CB-8-40 (antibody, human IgG1, V domains shown)
VH: B1 VH with N55S
VL: B1 VL with S53Y
As for B2, the EC50 for antibody-induced cell activation, as determined by the reporter-based assay is 0.89 nM.

B3: CB-8-37 (antibody, human IgG1, V domains shown)
VH: B1 VH with T28A, N55S
VL: B1 VL with S53F
As for B3, the EC50 for antibody-induced cell activation, as determined by the reporter-based assay was 0.92 nM.

B4: CB-8-24 (antibody, V domains shown)
VH: B1 VH with Y100L, G101P
VL: B1 VL
In the case of B4, the EC50 for antibody-induced cell activation, as determined by the reporter-based assay is 0.68 nM.

B5: CB-8-23 (antibody, human IgG1, V domains shown)
VH: B1 VH with Y32G, N57R
VL: B1 VL with S53F
In the case of B5, the EC50 for antibody-induced cell activation, as determined by the reporter-based assay was 0.57 nM.

B6: CB-8-26 (antibody, human IgG1, V domains shown)
VH: B1 VH with T30K, N57R
VL: B1 VL with S53G
Turning to B6, the EC50 for antibody-induced cell activation, as determined by the reporter-based assay turned out to be 0.66 nM.

B7: CB-8-14 (antibody, human IgG1, V domains shown)
VH: B1 VH with T30R, N55T
VL: B1 VL with L54R
Molecule B7 came in with an EC50 for antibody-induced cell activation, as determined by the reporter-based assay of 0.95 nM.

B8: CB-8-41 (antibody, human IgG1, V domains shown)
VH: B1 VH with T28L, N55T
VL: B1 VL with S53H
For the molecule B8, the EC50 for antibody-induced cell activation, as determined by the reporter-based assay was found to be 1.43 nM.

B9: CB-8-13 (antibody, human IgG1, V domains shown)
VH: B1 VH with T28R, N57R
VL: B1 VL with S53R
B9 displayed an EC50 for antibody-induced cell activation, as determined by the reporter-based assay of 1.39 nM.

The values are drawn from patent publication US20250066509A1.
